Experimental findings from paper PMC3416805 are described below.

This assay addresses endogenous ASR1 from tomato fruit nuclei (tomato (endogenous in tomato fruit)) (UniProt Q08655). The assay is described as follows: cross-linking; formaldehyde crosslinking of ground tomato fruit pericarp, nuclei purified, nuclear proteins passed over a Ni2+ column, SDS-PAGE and immunoblot with anti-ASR1 antiserum. Background: Immunoblotting shows a protein as a band on a membrane.

“And” between values parts separate entries of the source, which are not always exact repeats. Identical values can stand only once. Bounds are passed on as bounds.

By stoichiometry N is commonly meant a count of units in the complex or per binding partner. As for “endogenous ASR1 from tomato fruit nuclei (from UniProt Q08655 1-115) (natural protein)”, the percent of nuclear ASR1 in a monomeric form is more than 90%; the stoichiometry N was 2 and 3.
